Test results from the supplement of paper PMC12764529.
± gives the half width of the 95% confidence interval.

assay: folding stability dG unfold (combined trypsin and chymotrypsin); higher = more stable
Procedure, shortened: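 Mini-proteins designed to be under 80 residues and free of cysteine were carried in a PA-tagged cDNA display construct and digested with trypsin and with chymotrypsin. Each protease was applied at 11 threefold-diluted concentrations, alongside a no-protease condition, before sequencing. K50 came from Bayesian fitting of the sequencing counts, and unfolding free energy was obtained by comparing it with a sequence-predicted unfolded-state K50 and a shared folded-state K50, for each protease separately or for both together. Designs were retained only if their AlphaFold2 dimer inter-PAE exceeded 15.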

| Sequence | folding stability dG unfold [kcal/mol] |
| --- | --- |
| SAGGKEIYKVNKKDFKKILDYLKKKKNAKITIIIKNKPIEIPIKDLEENYKKIKGKPNEPFYLEIEYSAGGS [r16_377_TrMRF] | 2.14 ± 0.077 |
| SAGTIKEIAETIAEFMRQNGMNIKVKLTEVDPNDPNYVKVRVEIEMWYYKKNGKPLGPMRHTMTIVIRSAGG [r19_418_TrROS] | 2.92 ± 0.29 |
| SAGGMTKTESEVFFEPDGSSSSAKVTITVDDGPLTANVTISPDSVTTTINYPDGSTVTTTTSVSPAASAGGS [r16_108_JUSTAS] | 1.27 ± 0.13 |
| SAGWHEIEIEIMIPFPKENAEELAKEIAEEIARMHGFKITNIEVQVYPTDGEYYVMIPVKIRIPPPNDTSAG [r14_219_TrROS] | 3.05 ± 0.11 |
| SKTLTLEVEVPEGPVRIVVEASDGSRLEAEVPADEKVTFTIPIPPDIPEETKVTVRVYNPETGEVTELEASA [r9_275_TrMRF] | 0.789 ± 0.066 |
| SAGGSYRVETTKTEVSEATAPDGTAYRVTTTTTVVTYPDGTRRTVTNVTITDPATGVPTSSTATTTAVSAGG [r13_133_JUSTAS] | 2.25 ± 0.03 |
| SAGGSAGGSAGSKKAVIGGDGATVTYYPPLGYALVTFPDGTAALVDLKTGEIVEIAKTNDSAGGSAGGSAGG [r11_149_TrMRF] | 2 ± 0.11 |
| SAGGSAGGSAMQRVEIYFPGLKKVFTKPFKSLEEVEEAVKELLGPEYNPEKVEIKILPENAESAGGSAGGSA [r18_350_TrMRF] | 1.27 ± 0.17 |
| SAGGSAGGSAGKPKEIFVFDKEIDADEAVALLPDEVKEVVVFDIEEAREKGGILIKAVVDSAGGSAGGSAGG [r11_1002_TrMRF] | 0.54 ± 0.14 |
| SAGGSAGGSSLTVTYDPSTGTLTITVPEDQTSVKIKYGDKTYTVPLPPGQTFTVPANTFTLESSAGGSAGGS [r20_26_TrMRF] | 1.29 ± 0.11 |
| SAGGSAGGSMVIRVTTKDGEEVELEIEGMSLEEIKALLPEGVKEVKIEKVEVEPVEVEEEEEESAGGSAGGS [r12_767_TrROS_Hall] | 1.72 ± 0.21 |
| SAGGSAGGSAGGVTIVIGTDKDIPAEVIEKEVADELLKAGIPPDVKVNVVVVPIDPDALSAGGSAGGSAGGS [r10_746_TrMRF] | 1.11 ± 0.1 |
| SAGGKPPNLKIKIEVIPIPNGYWIITFRIKVPPNEPLKIRFPDFGREIEFPPGDEVTIMILIPPDDLSAGGS [r16_56_TrROS] | 4.62 ± 0.35 |
| SAGGSMYLIRITVRNKDGEEVLTIERRVRLEDGKSLEEVAEELRRALESLPNLEVVDVEVVPLEELSAGGSA [r2_192_TrROS_Hall] | 3.99 ± 0.058 |
| SAGGMKVYKISFPNATVTYEEETGKVTINPPDGSTKVIEISPDISIEEVAKKLAEELGFTEATITPEPSAGG [r13_852_JUSTAS] | 1.48 ± 0.068 |
| SAGGSAGGDGPGAPPVPRIRIKVEFEHNGKKVTWEFRSLDDMKEQVKERFKENGLKVKITEIEWSAGGSAGG [r6_869_TrROS] | 1.88 ± 0.1 |

| Sequence | folding stability dG unfold [kcal/mol] |
| --- | --- |
| SAGGSAGGSEKEVYVRNENGELYRFRAKAAPKLKLKLKLELERDENGNLSLRLELEVVSEEDLSAGGSAGGS [r12_1027_TrROS_Hall] | 4.63 ± 0.4 |
| SAGGSAGGKTLTIKLKDSTVTIELPSSISSISRIEVHSDGSLTLYHSSTGSTITLPIPPKIDNPSAGGSAGG [r6_369_TrMRF] | 1.96 ± 0.051 |
| SAGGMKLTPEAKKLAEELKKEGKKVKIEKKDGYYVLTVDGKVYKSKEDMEKAAKDPNVKKVIVIKLPSAGGS [r16_275_TrROS_Hall] | 1.46 ± 0.18 |
| SMPEKVTFPFNIPLEEYSLEEIKEAVRERLEKEGYKVLKPDLFPEQEKLAKEAPPEAELPLLVEALVVPGSA [r9_1163_TrMRF] | 0.0434 ± 0.28 |
| SAGGSAGGSAGVLSLEGVVSTEEFEDPSSSNKTLVITLPGGERVVVNLPSSPSSVVTRLVSAGGSAGGSAGG [r17_182_JUSTAS] | 0.422 ± 0.074 |
| SMEVEFDPENRTIVATVPEGVDPLAVAATLLAVVRELFDSGPVRLIVTNGDEVLEYLLGEDVLEVRPAGESA [r9_224_TrMRF] | 4.01 ± 0.1 |
| SAGGSAGGSAGKIIEELKKKGYKVEVIKDKKTKKYYVKITVTDKKGNKKTITIPLKDIKPSAGGSAGGSAGG [r17_311_TrROS_Hall] | 3.71 ± 0.35 |
| SAGGMSITLTPDDGSTLTIPLSDPTLSLEEVVQMVVDKQEGAVNIQVTITFPDSEVTKTYTIPSPGGSAGGS [r16_216_JUSTAS] | 0.605 ± 0.13 |
| WMWVIKVRNPKNGKKRTIMIPDDPERAKNQIKNLKKQDPNMTVEIIGIKEPEVRKAAKEAGLDDIEVEPMPS [r1_114_TrROS] | 0.726 ± 0.31 |
| SAGGSAGGSAGGENPVDFKARVELLSGVVELTYTNEDGEPTTTLEEVVALKIEIEPSNNSAGGSAGGSAGGS [r10_1212_TrMRF] | 1.65 ± 0.073 |
| SAGGSAGGSAGGGSMPLLTETRKSLVVDPETGRLREVTTTTIRFPDRNTSQVTTTVTPVSSAGGSAGGSAGG [r7_196_JUSTAS] | 0.41 ± 0.14 |
| SAGGSAGGSAGSFTVLVTEVLDPDDPLYLKLQKELGLPPENIVRFKLYTFSSPEEVKKKISAGGSAGGSAGG [r11_83_TrMRF] | 1.5 ± 0.065 |
| SALVPIKGKYPVYEMRPEKDPNGNMKPEMRPVKVPIEFPFVVIDPENGKWVPADDIDPEDGRLVAPGLISAG [r14_122_TrROS] | 0.598 ± 0.064 |
| SAGGSAGGSTTLTVDLPFGPATVHITGLPDSFVAFIEFDNPPFRATATIKEISKNGIVIEDIDFSAGGSAGG [r6_982_TrMRF] | 2.1 ± 0.22 |
| SAGGGMAPDTPVTVRIEITLPDGTRRVLDIPGRAGDPALLEAIAAELREEGYEVREIRPVEGRIVVASAGGS [r8_497_JUSTAS] | 2.53 ± 0.081 |
